Measured values reported in the supplement of paper PMC11208486.

Legend:
[1] = melting temperature (ThermoFMN); higher = more thermostable
Method: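 Purified His-tagged ene reductases (1 mg/ml) in 50 mM sodium phosphate pH 7.4 with 0-30% (v/v) organic co-solvent. Melting temperature was measured by the ThermoFMN assay (FMN fluorescence, 20-90 °C at 1 °C/min, inflection point, triplicate). Specific initial activity was measured with 10 mM cyclohex-2-enone and 0.2 mM NAD(P)H (NADH for LacER) as A340 depletion, at room temperature (DMSO, 2-propanol, n-propanol) or 25 °C (EtOH, MeOH), in triplicate. The TsOYE Tm is above the 90 °C measurement range.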

[2] = specific initial activity, cyclohex-2-enone reduction (U mg-1); higher = more active; conditions: co-solvent: ethanol
Method: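 Specific initial activity of purified ene reductases with 10 mM cyclohex-2-enone and 0.2 mM NAD(P)H in 50 mM sodium phosphate pH 7.4 with 0-45% (v/v) ethanol or methanol, at set reaction temperatures of 25-45 °C. NAD(P)H depletion was followed at 340 nm for 480 s, in triplicate.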

MSFVKDFKPQALGDTNLFKPIKIGNNELLHRAVIPPLTRMRALHPGNIPNRDWAVEYYTQRAQRPGTMIITEGAFISPQAGGYDNAPGVWSEEQMVEWTKIFNAIHEKKSFVWVQLWVLGWAAFPDNLARDGLRYDSASDNVFMDAEQEAKAKKANNPQHSLTKDEIKQYIKEYVQAAKNSIAAGADGVEIHSANGYLLNQFLDPHSNTRTDEYGGSIENRARFTLEVVDALVEAIGHEKVGLRLSPYGVFNSMSGGAETGIVAQYAYVAGELEKRAKAGKRLAFVHLVEPRVTNPFLTEGEGEYEGGSNDFVYSIWKGPVIRAGNFALHPEVVREEVKDKRTLIGYGRFFISNPDLVDRLEKGLPLNKYDRDTFYQMSAHGYIDYPTYEEALKLGWDKK
melting temperature [°C], [1]
Conditions | co-solvent concentration (% v/v): 0 | co-solvent concentration (% v/v): 5 | co-solvent concentration (% v/v): 10 | co-solvent concentration (% v/v): 15 | co-solvent concentration (% v/v): 20 | co-solvent concentration (% v/v): 25 | co-solvent concentration (% v/v): 30
co-solvent: 2-propanol | 45 | 44 | 41.3 | 37.3 | 34.7 | 33.7 | 28.3
co-solvent: dimethyl sulfoxide | 45 | 44.3 | 43.3 | 42 | 40.7 | 39.3 | 37.3
co-solvent: ethanol | 45.3 | 43.3 | 42 | 39.7 | 37.7 | 35.3 | 34.3
co-solvent: methanol | 46 | 45 | 43 | 42 | 40.3 | 37.7 | 34.7
co-solvent: n-propanol | 45 | 40.3 | 34.7 | 31.7 | 31 | 30.3 | 27.3

[2]
Conditions | specific initial activity
co-solvent concentration (% v/v): 0, reaction temperature 25 °C | 0.2
co-solvent concentration (% v/v): 0, reaction temperature 30 °C | 0.23
co-solvent concentration (% v/v): 0, reaction temperature 35 °C | 0.36
co-solvent concentration (% v/v): 0, reaction temperature 40 °C | 0.33
co-solvent concentration (% v/v): 0, reaction temperature 45 °C | 0.1
co-solvent concentration (% v/v): 5, reaction temperature 25 °C | 0.28
co-solvent concentration (% v/v): 5, reaction temperature 30 °C | 0.32
co-solvent concentration (% v/v): 5, reaction temperature 35 °C | 0.47
co-solvent concentration (% v/v): 5, reaction temperature 40 °C | 0.34
co-solvent concentration (% v/v): 5, reaction temperature 45 °C | 0.17
co-solvent concentration (% v/v): 10, reaction temperature 25 °C | 0.27
co-solvent concentration (% v/v): 10, reaction temperature 30 °C | 0.37
co-solvent concentration (% v/v): 10, reaction temperature 35 °C | 0.52
co-solvent concentration (% v/v): 10, reaction temperature 40 °C | 0.21
co-solvent concentration (% v/v): 10, reaction temperature 45 °C | 0.12
co-solvent concentration (% v/v): 15, reaction temperature 25 °C | 0.32
co-solvent concentration (% v/v): 15, reaction temperature 30 °C | 0.36
co-solvent concentration (% v/v): 15, reaction temperature 35 °C | 0.52
co-solvent concentration (% v/v): 15, reaction temperature 40 °C | 0.09
co-solvent concentration (% v/v): 15, reaction temperature 45 °C | 0.05
co-solvent concentration (% v/v): 20, reaction temperature 25 °C | 0.36
co-solvent concentration (% v/v): 20, reaction temperature 30 °C | 0.35
co-solvent concentration (% v/v): 20, reaction temperature 35 °C | 0.32
co-solvent concentration (% v/v): 20, reaction temperature 40 °C | 0.02
co-solvent concentration (% v/v): 20, reaction temperature 45 °C | 0.02
co-solvent concentration (% v/v): 25, reaction temperature 25 °C | 0.27
co-solvent concentration (% v/v): 25, reaction temperature 30 °C | 0.21
co-solvent concentration (% v/v): 25, reaction temperature 35 °C | 0.03
co-solvent concentration (% v/v): 25, reaction temperature 40 °C | 0.01
co-solvent concentration (% v/v): 25, reaction temperature 45 °C | 0.01
co-solvent concentration (% v/v): 30, reaction temperature 25 °C | 0.15
co-solvent concentration (% v/v): 30, reaction temperature 30 °C | 0.15
